Each block holds one binder with its values, some of them ahead of it.
How the values were obtained:
[1] = molecular target: T1, secreted, soluble furin (human, UniProt P09958 108-715, limits assumed); assay: rapid inhibition assay; listed as potent inhibitor of furin
T1 construct: Secreted, soluble construct; also called human furin
Protocol: (§1) 5. Rapid protease inhibition assay. Novel eglin variants were diluted 50-fold and incubated with secreted, soluble furin (0.5 nM) for 15 min in 96-well plates. The furin substrate (Boc-Arg-Val-Arg-Arg-MCA) was added, and release of AMC was monitored continuously in a 96-well fluorescence plate reader for 20 min, as described under Example 1. […] The plasmid DNA encoding such eglin c variant inhibitors were isolated and sequenced.

[2] = molecular target: T2, subtilisin Carlsberg (UniProt P00780 106-379); assay: enzyme inhibition
T2 sequence (looked up): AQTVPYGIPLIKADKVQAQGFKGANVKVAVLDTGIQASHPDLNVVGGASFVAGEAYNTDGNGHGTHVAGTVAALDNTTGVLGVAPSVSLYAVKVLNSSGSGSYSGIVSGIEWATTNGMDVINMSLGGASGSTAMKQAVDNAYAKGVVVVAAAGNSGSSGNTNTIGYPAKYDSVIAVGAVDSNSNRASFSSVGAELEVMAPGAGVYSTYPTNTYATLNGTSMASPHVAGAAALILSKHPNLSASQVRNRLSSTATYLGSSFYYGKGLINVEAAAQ

[3] = molecular target: trypsin; assay: enzyme inhibition
trypsin, sequence (P00760 24-246): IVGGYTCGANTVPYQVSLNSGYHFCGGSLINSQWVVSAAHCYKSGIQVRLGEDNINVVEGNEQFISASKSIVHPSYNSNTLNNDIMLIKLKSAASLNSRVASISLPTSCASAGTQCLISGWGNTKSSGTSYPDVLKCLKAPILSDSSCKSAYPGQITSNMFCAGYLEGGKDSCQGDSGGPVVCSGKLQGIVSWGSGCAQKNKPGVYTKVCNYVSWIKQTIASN

[4] = molecular target: T3, secreted, soluble Kex2 (Saccharomyces cerevisiae, UniProt P13134 114-613, limits assumed); assay: equilibrium enzyme inhibition
T3 construct: Secreted, soluble construct; also called kexin
T3 sequence (looked up): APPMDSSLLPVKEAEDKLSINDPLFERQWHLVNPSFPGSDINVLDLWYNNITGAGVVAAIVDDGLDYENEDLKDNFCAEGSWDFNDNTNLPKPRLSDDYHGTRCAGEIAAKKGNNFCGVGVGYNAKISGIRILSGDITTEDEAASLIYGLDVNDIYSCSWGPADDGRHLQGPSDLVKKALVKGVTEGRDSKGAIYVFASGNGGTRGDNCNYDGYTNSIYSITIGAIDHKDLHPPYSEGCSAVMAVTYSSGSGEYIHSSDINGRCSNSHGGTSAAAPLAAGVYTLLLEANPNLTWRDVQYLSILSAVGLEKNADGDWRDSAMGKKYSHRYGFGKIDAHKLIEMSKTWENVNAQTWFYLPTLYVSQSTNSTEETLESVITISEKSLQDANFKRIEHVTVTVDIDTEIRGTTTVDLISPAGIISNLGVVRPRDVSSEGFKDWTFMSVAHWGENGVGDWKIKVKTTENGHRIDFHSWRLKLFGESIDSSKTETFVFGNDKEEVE
Protocol: (§2) Thus, R1-eglin refers to substitution of Arg at position P1.
(§3) Affinities of eglin variants with secreted, soluble Kex2 (hereafter “Kex2”; Brenner, C. and Fuller, R. S. (1992) Proc. Natl. Acad. Sci. USA 89: 922-926) and secreted, soluble furin (hereafter, “furin”; Bravo, D. A. et al (1994) J. Biol. Chem. 269: 25830-25837; and Komiyama & Fuller (2000) Biochemistry 39: 15156-15165) were measured by incubating variants with the enzymes (˜0.5 to 2.0 nM) for 45 min to 1 h at 21° C. in one of two enzyme assay buffers. For Kex2, the buffer was 200 mM Bistris (pH 7.27) containing 1 mM CaCl₂ and 0.1% Triton X-100; and for furin, the buffer was 20 mM NaMES (pH 7.0) containing 1 mM CaCl₂ and 0.1% Triton X-100 for furin.

[5] = molecular target: T1, secreted, soluble furin; assay: equilibrium enzyme inhibition
Protocol: as §2, §3

[6] = molecular target: human plasma kallikrein (human, UniProt P03952 20-638); assay: enzyme inhibition; weak inhibition
human plasma kallikrein, sequence (P03952 20-638 limits assumed): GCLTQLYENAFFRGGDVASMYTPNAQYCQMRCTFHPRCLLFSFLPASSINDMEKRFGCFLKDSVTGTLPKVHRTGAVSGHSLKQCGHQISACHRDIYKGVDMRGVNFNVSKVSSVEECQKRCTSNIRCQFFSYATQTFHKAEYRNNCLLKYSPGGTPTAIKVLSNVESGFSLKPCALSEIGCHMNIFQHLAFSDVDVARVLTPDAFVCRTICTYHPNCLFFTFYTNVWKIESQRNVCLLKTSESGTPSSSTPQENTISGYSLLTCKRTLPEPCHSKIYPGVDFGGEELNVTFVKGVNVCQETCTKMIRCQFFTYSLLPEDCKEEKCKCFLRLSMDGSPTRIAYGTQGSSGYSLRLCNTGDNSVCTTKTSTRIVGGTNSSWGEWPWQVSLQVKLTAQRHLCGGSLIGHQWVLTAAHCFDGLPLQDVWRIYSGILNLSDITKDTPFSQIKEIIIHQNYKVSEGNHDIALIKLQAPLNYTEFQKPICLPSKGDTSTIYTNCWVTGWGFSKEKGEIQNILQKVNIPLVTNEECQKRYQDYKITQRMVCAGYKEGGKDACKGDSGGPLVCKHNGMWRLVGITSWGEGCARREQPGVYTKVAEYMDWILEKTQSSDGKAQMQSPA

[7] = molecular target: human plasmin (human, UniProt P00747 97-810, limits assumed); assay: enzyme inhibition; weak inhibition
human plasmin, sequence (P00747 97-810 limits assumed): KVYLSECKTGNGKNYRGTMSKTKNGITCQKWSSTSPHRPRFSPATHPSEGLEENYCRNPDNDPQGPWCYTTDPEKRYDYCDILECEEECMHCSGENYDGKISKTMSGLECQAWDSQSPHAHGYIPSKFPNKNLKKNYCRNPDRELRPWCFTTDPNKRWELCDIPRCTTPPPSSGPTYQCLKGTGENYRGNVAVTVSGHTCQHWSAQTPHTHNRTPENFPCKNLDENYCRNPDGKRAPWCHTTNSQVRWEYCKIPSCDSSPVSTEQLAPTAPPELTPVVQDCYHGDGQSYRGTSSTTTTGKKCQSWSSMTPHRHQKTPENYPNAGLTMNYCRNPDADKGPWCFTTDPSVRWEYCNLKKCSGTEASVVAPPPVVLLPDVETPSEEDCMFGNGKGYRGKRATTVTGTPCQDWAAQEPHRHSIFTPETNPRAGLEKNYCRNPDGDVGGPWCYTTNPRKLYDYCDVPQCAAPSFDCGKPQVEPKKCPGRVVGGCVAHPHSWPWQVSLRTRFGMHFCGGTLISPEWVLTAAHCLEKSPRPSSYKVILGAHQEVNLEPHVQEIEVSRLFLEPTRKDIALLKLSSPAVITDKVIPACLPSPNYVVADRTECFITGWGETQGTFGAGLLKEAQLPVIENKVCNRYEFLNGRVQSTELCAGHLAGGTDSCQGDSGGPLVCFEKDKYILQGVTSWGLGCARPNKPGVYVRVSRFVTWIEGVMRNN

[8] = molecular target: T3, secreted, soluble Kex2; assay: equilibrium enzyme inhibition, fluorogenic substrate
Protocol: (§4) Affinities of eglin variants with secreted, soluble Kex2 (hereafter “Kex2”; Brenner, C. and Fuller, R. S. (1992) Proc. Natl. Acad. Sci. USA 89: 922-926) and secreted, soluble furin (hereafter, “furin”; Bravo, D. A. et al (1994) J. Biol. Chem. 269: 25830-25837; and Komiyama & Fuller (2000) Biochemistry 39: 15156-15165) were measured by incubating variants with the enzymes (˜0.5 to 2.0 nM) for 45 min to 1 h at 21° C. in one of two enzyme assay buffers. For Kex2, the buffer was 200 mM Bistris (pH 7.27) containing 1 mM CaCl₂ and 0.1% Triton X-100; and for furin, the buffer was 20 mM NaMES (pH 7.0) containing 1 mM CaCl₂ and 0.1% Triton X-100 for furin. 100 to 200 μL aliquots of reaction mixtures were transferred into triplicate wells of opaque 96 well plates (Costar), and residual enzyme activity was measured with an fmax fluorescence micro plate reader (Molecular Devices) by monitoring hydrolysis of a fluorogenic substrate Boc-Arg-Val-Arg-Arg-MCA. Data were graphically analyzed (KaleidaGraph) with an equation developed by Green and Work (1953). Site-directed mutagenesis at P2 and P6 of eglin c generated temporary inhibitors (Table 3) and exhausted possibility to improve affinity further with this approach.

[9] = molecular target: T1, secreted, soluble furin; assay: as above
Protocol: as §4

[10] = molecular target: T1, secreted, soluble furin; assay: ratio of affinities, enzyme inhibition
[11] = molecular target: T3, secreted, soluble Kex2; assay: enzyme inhibition, purified variant; Kassoc
[12] = molecular target: T1, secreted, soluble furin; assay: enzyme inhibition, purified variant; Kassoc
[13] = molecular target: T4, human PC7 (human, UniProt Q16549 142-667, limits assumed); assay: enzyme inhibition, purified variant; Kassoc
T4 sequence (looked up): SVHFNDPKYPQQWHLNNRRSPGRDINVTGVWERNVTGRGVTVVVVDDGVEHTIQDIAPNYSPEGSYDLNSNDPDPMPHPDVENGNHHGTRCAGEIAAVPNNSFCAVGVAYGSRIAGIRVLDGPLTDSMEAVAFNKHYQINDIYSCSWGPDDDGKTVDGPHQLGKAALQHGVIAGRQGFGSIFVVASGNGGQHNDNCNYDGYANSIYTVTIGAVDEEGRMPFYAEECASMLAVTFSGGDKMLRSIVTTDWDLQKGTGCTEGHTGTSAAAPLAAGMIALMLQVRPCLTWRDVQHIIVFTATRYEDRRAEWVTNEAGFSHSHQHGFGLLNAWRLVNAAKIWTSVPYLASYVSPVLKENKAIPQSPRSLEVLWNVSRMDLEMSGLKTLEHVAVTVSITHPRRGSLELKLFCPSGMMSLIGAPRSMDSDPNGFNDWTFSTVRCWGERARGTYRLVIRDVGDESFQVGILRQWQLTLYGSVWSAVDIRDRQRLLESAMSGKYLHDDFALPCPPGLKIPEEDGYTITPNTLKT

[14] = molecular target: T3, secreted, soluble Kex2; assay: rapid inhibition assay; listed as potent inhibitor of Kex2
[15] = molecular target: T1, secreted, soluble furin; assay: rapid furin inhibition assay; table lists substitutions with equal or enhanced inhibition of furin relative to the template
Protocol: 3. Rapid screening of libraries. Libraries were introduced into E. coli BL21 (DE3) cells and individual, cloned transformants were grown by shaking at 37° C. in 200 μl LB containing […] kanamycin in 96-well, 0.45 μm GHP membrane filter plates (Gelman) (FIG. 2). When O.D. 600 values reached 0.4, 60 μl of culture were transferred to secondary 96-well plates (Falcon), adjusted to 10% glycerol, and stored at −80° C. These frozen stocks served as master copies of the libraries. IPTG was added to the cultures to a final concentration of 1 mM, and the cultures were allowed to express eglin c variants for one hour in the filter plate. Expressed eglin c variants were extracted from the cells with 50 mM Tris-HCl pH 8.0 containing 2 mM EDTA following freezing and thawing. These extracts were collected as filtrates by centrifugation of the filter plate above a second plate. The filtrates, representing partially purified eglin c variants, were analyzed using a rapid fluorescence-based assay for processing enzyme inhibition as described below in Section 5. […] Frozen cells were cultured in 50 to 100 ml culture volumes, and DNA maxipreps were performed; the DNA preparations were then sequenced by automated DNA sequencing. Selected variants were expressed and purified on a larger scale, and affinities for furin or Kex2 were examined quantitatively (see below).
as §1

[16] = molecular target: T2, subtilisin Carlsberg; assay: enzyme inhibition, standard assay conditions
[17] = molecular target: T5, human neutrophil elastase (human, UniProt P08246 30-247); assay: enzyme inhibition, standard assay conditions
T5 sequence (looked up): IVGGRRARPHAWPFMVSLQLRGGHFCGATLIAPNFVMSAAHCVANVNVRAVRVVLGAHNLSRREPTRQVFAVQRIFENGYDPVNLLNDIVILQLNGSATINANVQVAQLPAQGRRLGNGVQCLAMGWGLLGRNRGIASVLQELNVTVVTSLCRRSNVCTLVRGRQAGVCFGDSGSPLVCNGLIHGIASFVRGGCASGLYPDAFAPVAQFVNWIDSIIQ

[18] = molecular target: chymotrypsin; assay: enzyme inhibition, standard assay conditions
[19] = molecular target: T3, secreted, soluble Kex2; assay: estimated from koff
Protocol: In some aspects of the present invention, biological application of the eglin c variants of the present invention as inhibitors of processing in vivo depends upon the rate of binding to target enzymes, where it is critical. Therefore, the rate of action of eglin variants with Kex2 and furin was examined by incubating 5×10⁻¹⁰ M enzyme with inhibitor at molar ratios of inhibitor to enzyme ranging from 10 to 80. […] The relationship between kobs and inhibitor concentration was linear. The values of kₒₙ were determined from the slope of such curves, and dissociation rate constants (koff) were calculated (koff=kₒₙ/Kₐ). For R4R1-eglin, koff was calculated to be 2×10⁻⁴s⁻¹ for Kex2, and 3×10⁻⁴s⁻¹ for furin. […] Similarly, the t_{1/2} of the complex of M4R1-eglin with Kex2 was estimated to be 3 h. For complex of R4K1-eglin with furin, koff was calculated to be 2×10⁻⁴s⁻¹ implying that the koff and t_{1/2} for this complex are similar to those for the complex of R4R1-eglin with furin.

[20] = molecular target: trypsin; assay: enzyme inhibition; temporary inhibitor of trypsin

T1 sequence (P09958 108-715 limits assumed): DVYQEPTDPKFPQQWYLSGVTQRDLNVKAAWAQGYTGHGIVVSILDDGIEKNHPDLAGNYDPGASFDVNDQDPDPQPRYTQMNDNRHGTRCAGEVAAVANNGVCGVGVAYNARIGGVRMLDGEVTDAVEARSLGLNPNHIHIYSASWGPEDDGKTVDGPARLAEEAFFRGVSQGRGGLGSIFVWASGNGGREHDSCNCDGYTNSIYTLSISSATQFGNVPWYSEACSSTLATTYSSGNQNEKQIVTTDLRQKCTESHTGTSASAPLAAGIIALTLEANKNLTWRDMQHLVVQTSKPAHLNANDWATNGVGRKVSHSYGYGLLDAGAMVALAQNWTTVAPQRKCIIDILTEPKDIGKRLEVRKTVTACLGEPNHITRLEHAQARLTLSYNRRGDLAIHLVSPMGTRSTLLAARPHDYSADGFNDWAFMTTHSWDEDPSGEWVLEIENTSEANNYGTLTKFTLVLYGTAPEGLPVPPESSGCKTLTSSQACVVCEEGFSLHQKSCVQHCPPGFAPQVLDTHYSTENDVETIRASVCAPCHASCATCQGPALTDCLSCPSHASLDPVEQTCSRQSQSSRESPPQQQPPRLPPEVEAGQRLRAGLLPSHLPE

- binding result [1]: binds
B1: Gly49-R4R1-eglin (Tyr49 to Gly) (designed binder)
chain: SMGSELKSFPEVVGKTVDQAREYFTLHYPQYDVYFLPEGSRVTRDLRGNRVRVFYNPGTNVVNHVPHVG
notes: tested as partially purified extract

- fold preference for furin over PC7 [10]: 42 fold
- Ka [11]: 2.4e+10 M⁻¹
- Ka [12]: 3.7e+09 M⁻¹
- Ka [13]: 8.7e+07 M⁻¹
B3: V33D49-R4R1-eglin (designed binder)
chain: SMGSELKSFPEVVGKTVDQAREYFTLHYPQYVVYFLPEGSRVTRDLRDNRVRVFYNPGTNVVNHVPHVG
notes: N-terminal Met removed; also called Asp49Val33-R4R1-eglin-c

- Ka [16]: 6.7e+10 M⁻¹
- Ka [17]: 4.5e+10 M⁻¹
- Ka [18]: 1.1e+10 M⁻¹
- Ki [8]: ~500 µM
- Ki [9]: 120 µM
B5: L1-eglin (other)
chain: SMGSELKSFPEVVGKTVDQAREYFTLHYPQYDVYFLPEGSPVTLDLRYNRVRVFYNPGTNVVNHVPHVG
notes: Recombinant eglin with the natural reactive site loop; also called wild type eglin; wild type eglin (Leu45)

- binding result [1]: binds
B7: Pro38Leu Tyr49Cys R4R1-eglin (designed binder)
chain: SMGSELKSFPEVVGKTVDQAREYFTLHYPQYDVYFLLEGSRVTRDLRCNRVRVFYNPGTNVVNHVPHVG
notes: as for B1

- binding result [14]: binds
B8: Val49-R4R1-eglin (Tyr49 to Val) (designed binder)
chain: SMGSELKSFPEVVGKTVDQAREYFTLHYPQYDVYFLPEGSRVTRDLRVNRVRVFYNPGTNVVNHVPHVG
notes: as for B1

Second part, the binder before the results:

B2: R1-eglin (designed binder)
chain: SMGSELKSFPEVVGKTVDQAREYFTLHYPQYDVYFLPEGSPVTRDLRYNRVRVFYNPGTNVVNHVPHVG
notes: also called Arg45-eglin c
- Ka [2]: 1e+10 M⁻¹
- Ka [3]: 1.8e+10 M⁻¹
- fold increase in affinity relative to L1-eglin [4]: 10000 fold
- fold enhancement of affinity relative to L1-eglin [5]: 2 to 3 fold
- fold increase in affinity relative to L1-eglin [5]: 2.5 fold
- Ka [6]: ~1e+06 M⁻¹
- Ka [7]: ~1e+06 M⁻¹
- Ki [8]: 0.03 µM
- Ki [9]: 53 µM

B4: Tyr49Cys-R4R1-eglin (designed binder)
chain: SMGSELKSFPEVVGKTVDQAREYFTLHYPQYDVYFLPEGSRVTRDLRCNRVRVFYNPGTNVVNHVPHVG
notes: N-terminal Met removed; also called the Cys variant
- binding result [14]: binds
- binding result [15]: binds

B6: M4R1-eglin (designed binder)
chain: SMGSELKSFPEVVGKTVDQAREYFTLHYPQYDVYFLPEGSMVTRDLRYNRVRVFYNPGTNVVNHVPHVG
notes: N-terminal Met removed
- Ka [2]: 6.6e+10 M⁻¹
- half-life (t1/2) of the complex [19]: 3 h
- fold higher affinity of Kex2 than of furin [4]: ~10000 fold
- fold increase in Ka relative to R1-eglin [4]: 88 fold
- fold increase in affinity relative to L1-eglin [4]: 1.5e+06 fold
- fold increase in affinity relative to L1-eglin [5]: 33 fold
- fold increase in affinity relative to R1-eglin [5]: 15 fold
- Ka [20]: 4.4e+10 M⁻¹
- Ki [8]: 0.00034 µM
- Ki [9]: 3.6 µM

From US20050203007A1 (REGENTS OF THE UNIVERSITY OF MICHIGAN, published 2005)
